How the values were obtained:
human MCP-1 [1] = target: T1, human MCP-1 (human, UniProt P13500 24-99); assay: KinExA, in solution
T1 construct: also called hMCP-1; huMCP-1
Method: (§1) Polymethylmethacrylate beads activated with NHS were coated with 10 μg recombinant human MCP-1 in 1 ml buffer. The beads were packed into a column in the KinExA instrument for each sample. This packed bead column is able to capture free MCP mAb or Fab flowed through the column. The amount of free mAb or Fab in solution was determined using a secondary goat anti-mouse heavy and light chain IgG-Cy5 conjugate.
(§2) A fixed amount of 11K2 mAb, 1A1 mAb, 11K2 Fab, or 1A1 Fab was incubated with various amounts of human MCP-1, MCP-2 or MCP-3 for three hours. The amount of uncomplexed free antibody remaining in solution was determined by flowing these mixtures over the MCP-1-loaded bead column and labeling with the Cy5 secondary antibody. The fluorescent signal was plotted against the MCP concentration and the affinity was determined using a quadratic curve fit

human MCP-2 [2] = target: T2, human MCP-2 (human, UniProt P80075 24-99); assay: KinExA, in solution
T2 construct: also called hMCP-2; huMCP-2
T2 sequence (looked up): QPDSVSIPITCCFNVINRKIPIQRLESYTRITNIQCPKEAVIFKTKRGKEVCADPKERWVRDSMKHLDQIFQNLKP
Method: as §1, §2

human MCP-2 [3] = target: T2, human MCP-2; assay: KinExA, in solution, Fab
Method: (§3) 1 ml of MCP-1 at a concentration of 10 μg/ml in NaHCO₃ was added to an amount of beads equivalent to 1 ml of the original slurry. The beads were rocked overnight at 4° C. Beads were spun down and washed once with 1M Tris, pH 8.0, then resuspended in 1M Tris pH 8.0 with 1% BSA, 0.02% azide. The beads were rocked at room temperature for one hour then stored at 4° C. in this buffer for the duration of the experiments.
(§4) The KinExA 3000 measures protein-protein interaction in solution, and is ideally suited for measuring affinities of antibodies to antigens. In the typical experiment, antigen (MCP) is immobilized on a bead, antibody is flowed over a column of these beads at a given concentration, and the antibody that binds to the beads is detected using a fluorescent secondary. Antibody at a fixed concentration is then incubated with different concentrations of antigen in solution and the amount of free antibody is measured by flowing the mixture over the bead column quickly enough that no re-equilibration occurs between solution and solid phase. The amount of antibody remaining free is plotted against the concentration of antigen added and the data are fit to a quadratic equation to determine the affinity of the interaction in solution.
In these experiments, the only difference to the typical experiment described above is that instead of using intact antibody, a Fab fragment of 11K2 was used. Earlier KimExA experiments using the intact murine 11K2 mAb binding to MCP-1 and MCP-2 gave biphasic curves that the software could not interpret. This may be due to these proteins acting as dimers, so to eliminate the dimer/dimer interaction we generated Fab fragments. The binding of the 11K2 Fab fragments to MCP-1 and MCP-2 produced curves that the KinExA software could fit.

human MCP-1 [4] = target: T1, human MCP-1; assay: KinExA, in solution, Fab; Fab, not intact mAb
Method: as §3
as §4, with “solution. […]” for “solution.”

Kd (human MCP-1 [1]): 0.011 nM
Kd (human MCP-2 [2]): 0.43 nM
Kd (human MCP-2 [3]): 0.43 nM
Kd (human MCP-1 [4]): 0.011 nM
B1: Fab fragment of murine 11K2 (Fab, V domains shown)
VH: EVQLQQSGAELVKAGASVKLSCPASGLNIKDTYMHWVKQRPEQGLEWIGRIDPANGNTKFDPKFQGKATITADTSSNTAYLQLSSLTSEDTAVYYCARGVFGFFDYWGQGTTLTVSS
VL: DIQMTQSSSSFSVSLGDRVTITCKATEDIYNRLAWYQQKPGSAPRLLISGATSLETGVPSRFSGSGSGKDYTLSITSLQTEDVATYYCQQFWSAPYTFGGGTKLEIK
notes: also called 11K2 Fab; mu11K2 Fab

Reference: patent US20070134236A1 (Biogen, published 2007)
